In experiment [1] the target is FliT−FliD chaperone–substrate complex (non-fused) (Salmonella enterica serovar Typhimurium …, UniProt P0A1N2 1-122; P16328 1-467). As to the kind of experiment: ITC.
Experiment [2] addresses fused FliT−FliD^C construct (FliD^C fused to the N terminus of FliT) (Salmonella enterica serovar Typhimurium …, UniProt P16328). As to the kind of experiment: ITC. Background: ITC needs no label: the signal is the heat of the interaction.

Sequence of FliT−FliD chaperone–substrate complex (non-fused) (P0A1N2 whole entry, chain 1 of 2, the tested form may be a part): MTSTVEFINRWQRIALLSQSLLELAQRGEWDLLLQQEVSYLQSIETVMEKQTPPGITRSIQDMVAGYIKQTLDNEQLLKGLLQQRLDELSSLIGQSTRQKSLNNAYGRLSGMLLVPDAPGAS
Sequence of FliT−FliD chaperone–substrate complex (non-fused) (P16328 whole entry, chain 2 of 2, the tested form may be a part): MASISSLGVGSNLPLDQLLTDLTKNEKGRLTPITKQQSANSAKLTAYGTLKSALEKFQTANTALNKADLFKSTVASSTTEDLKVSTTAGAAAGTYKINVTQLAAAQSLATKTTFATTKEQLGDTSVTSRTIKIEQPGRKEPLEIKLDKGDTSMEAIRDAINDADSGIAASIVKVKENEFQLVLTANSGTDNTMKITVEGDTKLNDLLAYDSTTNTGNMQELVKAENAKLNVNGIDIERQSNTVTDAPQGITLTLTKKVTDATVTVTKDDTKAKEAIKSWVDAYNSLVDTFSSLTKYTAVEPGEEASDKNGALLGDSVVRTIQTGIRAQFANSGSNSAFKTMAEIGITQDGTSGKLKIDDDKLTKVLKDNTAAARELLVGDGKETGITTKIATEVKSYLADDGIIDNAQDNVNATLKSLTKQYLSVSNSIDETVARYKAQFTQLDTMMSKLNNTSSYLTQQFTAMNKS

B1: cytoplasmic domain of Salmonella enterica serovar Typhimurium FlhA (FlhA^C) (domain or fragment)
chain: SLGMEVGYRLIPMVDFQQDGELLGRIRSIRKKFAQDMGFLPPVVHIRDNMDLQPARYRILMKGVEIGSGDAYPGRWLAINPGTAAGTLPGEKTVDPAFGLDAIWIESALKEQAQIQGFTVVEASTVVATHLNHLIGQFSAELFGRQEAQQLLDRVSQEMPKLTEDLVPGVVTLTTLHKVLQNLLAEKVPIRDMRTILETLAEHAPLQSDPHELTAVVRVALGRAITQQWFPGNEEVQVIGLDTALERLLLQALQGGGGLEPGLADRLLAQTQEALSRQEMLGAPPVLLVNHALRPLLSRFLRRSLPQLVVLSNLELSDNRHIRMTATIGGK
The Kd is the constant that tells how readily two partners part at equilibrium. A higher Kd goes with a looser complex. In the case of B1, the dissociation constant (Kd) in experiment [1] was approximately 25 µM; in experiment [2], approximately 29 µM.

For the origin of these results see PMC5932034 (2018).
